Experimental findings from patent US20240199757A1 (UNIVERSITY OF CHICAGO, published 2024) are described below.

Substitutions are numbered along the chain they refer to. Read-outs that look alike come from different tables or passages of the source.

Experiment [1] concerns the target T1, human NT5E expressed on MDA-MB-231 cells (human, UniProt P21589 27-549).
T1 sequence (looked up): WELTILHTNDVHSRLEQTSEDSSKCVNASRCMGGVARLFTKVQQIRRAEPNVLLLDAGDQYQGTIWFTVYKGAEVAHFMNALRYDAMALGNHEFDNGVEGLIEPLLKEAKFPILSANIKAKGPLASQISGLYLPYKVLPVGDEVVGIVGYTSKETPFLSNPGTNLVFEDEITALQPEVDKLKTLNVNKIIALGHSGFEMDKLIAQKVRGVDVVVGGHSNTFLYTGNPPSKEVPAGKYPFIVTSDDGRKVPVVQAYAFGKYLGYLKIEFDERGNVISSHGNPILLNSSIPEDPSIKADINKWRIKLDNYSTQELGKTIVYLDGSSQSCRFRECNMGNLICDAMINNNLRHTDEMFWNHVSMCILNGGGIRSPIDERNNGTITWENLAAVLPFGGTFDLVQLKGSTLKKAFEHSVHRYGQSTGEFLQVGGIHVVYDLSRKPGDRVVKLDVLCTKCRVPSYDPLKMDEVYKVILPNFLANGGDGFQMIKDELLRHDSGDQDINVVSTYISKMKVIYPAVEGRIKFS
Put plainly: cell-based or functional assay.

Experiment [2] addresses T2, Full-length human NT5E (recombinant, in-house) (human, UniProt P21589 27-549).
T2 construct: also called hNT5E; hNT5EWT
T2 sequence: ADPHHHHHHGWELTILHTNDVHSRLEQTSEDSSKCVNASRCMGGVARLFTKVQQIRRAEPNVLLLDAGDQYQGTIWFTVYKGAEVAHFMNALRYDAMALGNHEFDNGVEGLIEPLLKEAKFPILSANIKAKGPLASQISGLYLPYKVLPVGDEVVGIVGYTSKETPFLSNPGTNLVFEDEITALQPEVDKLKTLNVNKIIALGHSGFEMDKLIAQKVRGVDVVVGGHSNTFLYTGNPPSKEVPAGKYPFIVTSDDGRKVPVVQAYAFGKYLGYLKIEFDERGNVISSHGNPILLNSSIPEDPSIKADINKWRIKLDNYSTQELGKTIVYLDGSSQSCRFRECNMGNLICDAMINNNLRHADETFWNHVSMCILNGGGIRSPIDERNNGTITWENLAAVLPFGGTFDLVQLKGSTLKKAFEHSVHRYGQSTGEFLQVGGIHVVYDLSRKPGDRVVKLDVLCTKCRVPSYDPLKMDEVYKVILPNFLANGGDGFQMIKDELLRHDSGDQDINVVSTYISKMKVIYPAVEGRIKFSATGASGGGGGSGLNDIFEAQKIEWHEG
Nature of the experiment: SPR, His-captured NT5E, no ATP. Here is the method:
(§1) All SPR experiments were performed at 25° C. using MASS-1 (Bruker) instrument. hNT5E, mNT5E and cNT5E were immobilized onto a nitrilotriacetic acid (NTA) sensor chip via His-tag. For kinetic experiments, after ligand immobilization, 2-fold serial dilutions of the Fabs were injected. After double-reference subtraction data were analyzed with BiaEvaluation (GE Healthcare) or Sierra Analyser (Bruker) software. The experiments were carried in buffers in presence and absence of 1 mM ATP to compare the kinetic parameters of the Fabs binding to closed and open form of NT5E.
A general note: In SPR one partner is held on a chip, and binding of the other changes the refractive index at the surface.

In experiment [3] the target is T3, Full-length murine NT5E (recombinant) (murine, UniProt Q61503 29-552).
T3 construct: also called mNT5E
T3 sequence: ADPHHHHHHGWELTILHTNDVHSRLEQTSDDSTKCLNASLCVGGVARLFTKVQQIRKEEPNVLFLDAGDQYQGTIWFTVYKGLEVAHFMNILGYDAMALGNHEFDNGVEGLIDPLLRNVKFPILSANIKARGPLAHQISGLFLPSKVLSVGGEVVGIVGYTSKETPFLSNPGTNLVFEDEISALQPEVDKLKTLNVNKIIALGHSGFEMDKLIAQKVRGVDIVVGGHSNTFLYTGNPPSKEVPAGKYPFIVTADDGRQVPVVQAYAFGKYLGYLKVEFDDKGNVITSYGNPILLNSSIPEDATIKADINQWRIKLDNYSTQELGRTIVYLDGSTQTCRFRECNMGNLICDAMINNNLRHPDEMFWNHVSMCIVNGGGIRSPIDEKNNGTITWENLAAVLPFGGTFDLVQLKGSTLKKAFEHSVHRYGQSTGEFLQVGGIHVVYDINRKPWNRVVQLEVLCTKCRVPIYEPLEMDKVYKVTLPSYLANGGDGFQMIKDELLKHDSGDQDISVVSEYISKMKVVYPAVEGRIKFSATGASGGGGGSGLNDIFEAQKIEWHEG
Nature of the experiment: SPR, His-captured NT5E, no ATP. On the procedure: as §1

The target in experiment [4] is T2, Full-length human NT5E (recombinant, …). Nature of the experiment: SPR, His-captured NT5E, 1 mM ATP. On the procedure:
as §1

Experiment [5] concerns the target T3, Full-length murine NT5E (recombinant). Nature of the experiment: SPR, His-captured NT5E, 1 mM ATP. Here is the method:
as §1

Experiment [6] addresses T2, Full-length human NT5E (recombinant, …). Nature of the experiment: SPR, hNT5E-6xHis on NTA chip, primary Fab injection; Fab concentration and ATP condition not given. Here is the method:
After incubation, the remaining NT5E is probed with αStrep-HRP Ab. If there is competition for binding to NT5E, then a decrease in signal would be expected.
as §1

The target in experiment [7] is T1, human NT5E expressed on MDA-MB-231 cells. Put plainly: flow cytometry on MDA-MB-231 cells, 1 mM ATP. On the procedure:
(§2) Flow cytometry analysis of antibodies binding to human NT5E expressed on MDA-MB-231 cells in ATP-free condition (black) or in 1 mM ATP (red). Top panel: (left) 1780 Fab and (right) 1780 IgG titrations. […] Binding was measured at the indicated range of antibody concentrations and is expressed as mean±st. dev of median fluorescence intensity (MFI) of 1-2 replicates. Data were analyzed using OriginLab, and EC₅₀ values are shown next to the fitted curves.
(§3) Human MDA-MB-231 cells and murine 4T1 cells were grown to 90% confluency, detached with 5 mM EDTA for 15 min at 37° C. and then resuspended in 37° C. lx PBS (#10010031, Gibco) supplemented with 1% FBS and 1OpM ZnCl2. Separate working buffers (WB) of PBS and 1% FBS with or without fixed nucleotide concentrations were used throughout all washing steps to maintain constant condition. In 96-well plates (#3799, Costar), 0.2×10⁶ cells were added per well. The plates were spun at 500×g for 5 min and the supernatant was removed. Anti-NT5E antibodies were diluted to the desired concentration in 100 μL WB, added to the cells and the plates were incubated for 20 min at 37° C. Plates were spun and cells were washed twice with WB then spun a second time. Cells were stained with 100 μL of secondary antibody (Alexa Fluor 647 AffiniPure Goat Anti-Human IgG, F(ab′)2 fragment specific, #109-605-006, Jackson, 1:200) dilution and plates were incubated for 20 min at 37° C. Cells were washed twice with WB then fixed on ice with WB supplemented with 0.5% PFA. Fixing solution was removed by centrifugation and cells were resuspended in cold 1× PBS. Samples were analyzed by flow cytometry using CytoFLEX (Beckman Coulter) and mean fluorescence intensity (MFI) data was extracted using FlowJo software. Resulting binding data was plotted using OriginLab.
(In flow cytometry, cells or beads pass a laser one at a time.)

The target is the same in experiment [8]. Put plainly: cell-based or functional assay. This is another data set of the same source.
Experiment [9] shares this target. Nature of the experiment: flow cytometry on MDA-MB-231 cells, 1 mM ATP. Here is the method: as §2, §3
This is another data set of the same source.

Experiment [10] has as its target T3, Full-length murine NT5E (recombinant). Nature of the experiment: SPR, His-captured NT5E, no ATP (* Data generated poor fits). Here is the method: as §1

B1: Medi9447 IgG (antibody, V domains shown)
VH: EVQLLESGGGLVQPGGSLRLSCAASGFTFSSYAYSWVRQAPGKGLEWVSAISGSGGRTYYADSVKGRFTISRDNSKNTLYLQMNSLRAEDTAVYYCARLGYGRVDEWGRGTLVTVSS
VL: QSVLTQPPSASGTPGQRVTISCSGSLSNIGRNPVNWYQQLPGTAPKLLIYLDNLRLSGVPDRFSGSKSGTSASLAISGLQSEDEADYYCATWDDSHPGWTFGGGTKLTVLG
Consider B1, for which, in [1], the “IC50 of NT5E activity on MDA-MB-231 cells, no ATP” value turned out to be 0.3 nM and the “IC50 of NT5E activity on MDA-MB-231 cells, with ATP” value was found to be 1 nM.

B2: 1789 AM32 Fab (Fab, V domains shown)
VH: EVQLVESGGGLVQPGGSLRLSCAASGFNVSYSSIHWVRQAPGKGLEWVARIRGNEGDTYYADSVKGRFTISADTSKNTAYLQMNSLRAEDTAVYYCARNYWGWYPFYYFAFDYWGQGTLVTV
VL: DIQMTQSPSSLSASVGDRVTITCRASQSVSSAVAWYQQKPGKAPKLLIYSASSLYSGVPSRFSGSRSGTDFTLTISSLQPEDFATYYCQQGWDYPITFGQGTKVEIKR
notes: also called Fab32
As for B2, the Kd in experiment [2] is 86 nM; in experiment [3], 150 nM; in [4], 15 nM; in experiment [5], 15 nM. Also, the koff in [2] is 0.0091 s⁻¹; in [3], 0.011 s⁻¹; in experiment [4] it was 0.0042 s⁻¹; in experiment [5] it was 0.0028 s⁻¹. Moreover, the kon in [2] was found to be 110000 M⁻¹ s⁻¹; in experiment [3] it was 78000 M⁻¹ s⁻¹; in [4] it was 270000 M⁻¹ s⁻¹; in experiment [5] it was 190000 M⁻¹ s⁻¹.

B3: 1557 Fab (Fab, V domains shown)
VH: EVQLVESGGGLVQPGGSLRLSCAASGFNVYYSSIHWVRQAPGKGLEWVASISSSSGSTSYADSVKGRFTISADTSKNTAYLQMNSLRAEDTAVYYCARYGWWEYGYGGWWHPALDYWGQGTLVTV
VL: B2 VL with G91V, D93W, Y94G
Regarding B3, the binding result in [6] is “binds”.

B4: 1780 IgG (antibody, V domains shown)
VH: EVQLVESGGGLVQPGGSLRLSCAASGFNFYSYSIHWVRQAPGKGLEWVASISSSSGYTYYADSVKGRFTISADTSKNTAYLQMNSLRAEDTAVYYCARYSWWGWHMEGWWGYMNAFDYWGQGTLVTVSS
VL: B2 VL with G91A, W92H, D93P, Y94K
Consider B4, for which the EC50 in experiment [7] came out at 19.6 nM; in experiment [9], 28 nM. Besides, the “IC50 of NT5E phosphate production on MDA-MB-231 cells, +500 µM ATP” value in [8] turned out to be 50.5 nM.

B5: 1789 AM39 Fab (Fab, V domains shown)
VH: B2 VH with R50S, N54A, E55G, G56S, Y59R
VL: B2 VL
As to B5, the Kd in experiment [10] was found to be 99 nM; in [2], 35 nM; in [4], 7.9 nM; in experiment [5] it was 12 nM. For the same molecule, the koff in experiment [2] amounted to 0.0099 s⁻¹; in experiment [3], 0.013 s⁻¹; in [4] it was 0.0039 s⁻¹; in experiment [5], 0.0035 s⁻¹. Also, the on-rate constant (kon) in [2] turned out to be 280000 M⁻¹ s⁻¹; in [3] it was 140000 M⁻¹ s⁻¹; in experiment [4], 490000 M⁻¹ s⁻¹; in experiment [5] it was 290000 M⁻¹ s⁻¹.

B6: 1789 AM42 Fab (Fab, V domains shown)
VH: B2 VH with R50K, N54G, E55H, G56Q, Y59H
VL: B2 VL
Turning to B6, the Kd amounted to 38 nM in experiment [2], 63 nM in [3], 11 nM in experiment [4] and 12 nM in [5]. Further, the koff came to 0.0067 s⁻¹ in experiment [2], 0.012 s⁻¹ in experiment [3], 0.0036 s⁻¹ in [4] and 0.0029 s⁻¹ in [5]. Also, the kon in [2] was determined as 180000 M⁻¹ s⁻¹; in experiment [3], 190000 M⁻¹ s⁻¹; in experiment [4] it was 320000 M⁻¹ s⁻¹; in experiment [5], 250000 M⁻¹ s⁻¹.

One may read the Kd as the constant that tells how readily two partners part at equilibrium. By koff is commonly meant the first-order rate constant of dissociation. As a reminder, the kon is a measure of how fast the partners come together. Usually EC50 stands for the concentration giving half of the maximal effect. Lower therefore signals an effect from little substance.
